From patent US20250101120A1 (BEIJING SOLOBIO GENETECHNOLOGY, published 2025)

T1: hFc-hFasL (fusion protein of human Fc fragment and human FasL extracellular region) (human, UniProt P48023 134-281)
T1 sequence: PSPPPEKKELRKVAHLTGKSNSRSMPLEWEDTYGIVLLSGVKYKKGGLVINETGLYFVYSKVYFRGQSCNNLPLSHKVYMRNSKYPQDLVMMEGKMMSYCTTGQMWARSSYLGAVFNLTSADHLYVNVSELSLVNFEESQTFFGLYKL


The binders below were run against T1, hFc-hFasL (fusion protein of human Fc …) (assay: cell-based or functional assay).

Binder	HepG2 IC50(nM), FasL antigen-induced cell apoptosis [nM]	Jurkat IC50(nM), FasL antigen-induced cell apoptosis [nM]
humFL-M54-1 (antibody, human IgG4, V domains shown) VH: QVQLVQSGAEVKKPGSSVKVSCKASGYTFTRFDISWVRQAPGQGLEWIGWIFPGDGSSQYNENFKGRATLTTDKSTSTAYMELSSLRSEDTAVYFCARSLISTAMFDHWGQGTLVTVSS VL: EIVMTQSPATLSVSPGERATLSCRASKSVSTSDFSYIHWYQQKPGQPPRLLIFLASHLESGIPARFSGSGSGTEFTLTISSLQSEDFAVYYCQHSRELPRTFGQGTKVEIK	0.028	0.035
humFL-M54-7 (antibody, human IgG4, V domains shown) VH: QVQLVQSGAEVKKPGSSVKVSCKASGYTFTRFDISWVRQAPGQGLEWMGWIFPGDGSSQYNENFKGRATLTTDKSTSTAYMELSSLRSEDTAVYFCARSLISTAMFDHWGQGTLVTVSS VL: EIVMTQSPATLSVSPGERATLSCRASKSVSTSDFSYIHWYQQKPGQPPRLLIYLASHLESGIPARFSGSGSGTEFTLTISSLQSEDFAVYYCQHSRELPRTFGQGTKVEIK	0.028	0.059
humFL-M54-8 (antibody, human IgG4, V domains shown) VH: QVQLVQSGAEVKKPGSSVKVSCKASGYTFTRFDISWVRQAPGQGLEWMGWIFPGDGSSQYNENFKGRATITTDKSTSTAYMELSSLRSEDTAVYFCARSLISTAMFDHWGQGTLVTVSS VL: EIVMTQSPATLSVSPGERATLSCRASKSVSTSDFSYIHWYQQKPGQPPRLLIYLASHLESGIPARFSGSGSGTEFTLTISSLQSEDFAVYYCQHSRELPRTFGQGTKVEIK	0.025	0.044
humFL-M54-6 (antibody, human IgG4, V domains shown) VH: QVQLVQSGAEVKKPGSSVKVSCKASGYTFTRFDISWVRQAPGQGLEWIGWIFPGDGSSQYNENFKGRATLTTDKSTSTAYMELSSLRSEDTAVYFCARSLISTAMFDHWGQGTLVTVSS VL: EIVMTQSPATLSVSPGERATLSCRASKSVSTSDFSYIHWYQQKPGQPPRLLIYLASHLESGIPARFSGSGSGTEFTLTISSLQSEDFAVYYCQHSRELPRTFGQGTKVEIK	0.031	–
humFL-M54-9 (antibody, human IgG4, V domains shown) VH: QVQLVQSGAEVKKPGSSVKVSCKASGYTFTRFDISWVRQAPGQGLEWMGWIFPGDGSSQYNENFKGRVTLTTDKSTSTAYMELSSLRSEDTAVYFCARSLISTAMFDHWGQGTLVTVSS VL: EIVMTQSPATLSVSPGERATLSCRASKSVSTSDFSYIHWYQQKPGQPPRLLIYLASHLESGIPARFSGSGSGTEFTLTISSLQSEDFAVYYCQHSRELPRTFGQGTKVEIK	0.026	0.035
humFL-M54-3 (antibody, human IgG4, V domains shown) VH: QVQLVQSGAEVKKPGSSVKVSCKASGYTFTRFDISWVRQAPGQGLEWMGWIFPGDGSSQYNENFKGRATITTDKSTSTAYMELSSLRSEDTAVYFCARSLISTAMFDHWGQGTLVTVSS VL: EIVMTQSPATLSVSPGERATLSCRASKSVSTSDFSYIHWYQQKPGQPPRLLIFLASHLESGIPARFSGSGSGTEFTLTISSLQSEDFAVYYCQHSRELPRTFGQGTKVEIK	0.035	–
humFL-M54-11 (antibody, human IgG4, V domains shown) VH: QVQLVQSGAEVKKPGSSVKVSCKASGYTFTRFDISWVRQAPGQGLEWIGWIFPGDGSSQYNENFKGRATLTTDKSTSTAYMELSSLRSEDTAVYFCARSLISTAMFDHWGQGTLVTVSS VL: EIVMTQSPATLSVSPGERATLSCRASKSVSTSDFSYIHWYQQKPGQAPRLLIYLASHLESGIPARFSGSGSGTEFTLTISSLQSEDFAVYYCQHSRELPRTFGQGTKVEIK	0.028	0.037
humFL-M54-13 (antibody, human IgG4, V domains shown) VH: QVQLVQSGAEVKKPGSSVKVSCKASGYTFTRFDISWVRQAPGQGLEWMGWIFPGDGSSQYNENFKGRATITTDKSTSTAYMELSSLRSEDTAVYFCARSLISTAMFDHWGQGTLVTVSS VL: EIVMTQSPATLSVSPGERATLSCRASKSVSTSDFSYIHWYQQKPGQAPRLLIYLASHLESGIPARFSGSGSGTEFTLTISSLQSEDFAVYYCQHSRELPRTFGQGTKVEIK	0.029	0.028
humFL-M54-4 (antibody, human IgG4, V domains shown) VH: QVQLVQSGAEVKKPGSSVKVSCKASGYTFTRFDISWVRQAPGQGLEWMGWIFPGDGSSQYNENFKGRVTLTTDKSTSTAYMELSSLRSEDTAVYFCARSLISTAMFDHWGQGTLVTVSS VL: EIVMTQSPATLSVSPGERATLSCRASKSVSTSDFSYIHWYQQKPGQPPRLLIFLASHLESGIPARFSGSGSGTEFTLTISSLQSEDFAVYYCQHSRELPRTFGQGTKVEIK	0.03	0.053
humFL-M54-5 (antibody, human IgG4, V domains shown) VH: QVQLVQSGAEVKKPGSSVKVSCKASGYTFTRFDISWVRQAPGQGLEWMGWIFPGDGSSQYNENFKGRVTITADKSTSTAYMELSSLRSEDTAVYFCARSLISTAMFDHWGQGTLVTVSS VL: EIVMTQSPATLSVSPGERATLSCRASKSVSTSDFSYIHWYQQKPGQPPRLLIFLASHLESGIPARFSGSGSGTEFTLTISSLQSEDFAVYYCQHSRELPRTFGQGTKVEIK	0.027	0.052
humFL-M54-10 (antibody, human IgG4, V domains shown) VH: QVQLVQSGAEVKKPGSSVKVSCKASGYTFTRFDISWVRQAPGQGLEWMGWIFPGDGSSQYNENFKGRVTITADKSTSTAYMELSSLRSEDTAVYFCARSLISTAMFDHWGQGTLVTVSS VL: EIVMTQSPATLSVSPGERATLSCRASKSVSTSDFSYIHWYQQKPGQPPRLLIYLASHLESGIPARFSGSGSGTEFTLTISSLQSEDFAVYYCQHSRELPRTFGQGTKVEIK	0.034	0.017
humFL-M54-14 (antibody, human IgG4, V domains shown) VH: QVQLVQSGAEVKKPGSSVKVSCKASGYTFTRFDISWVRQAPGQGLEWMGWIFPGDGSSQYNENFKGRVTLTTDKSTSTAYMELSSLRSEDTAVYFCARSLISTAMFDHWGQGTLVTVSS VL: EIVMTQSPATLSVSPGERATLSCRASKSVSTSDFSYIHWYQQKPGQAPRLLIYLASHLESGIPARFSGSGSGTEFTLTISSLQSEDFAVYYCQHSRELPRTFGQGTKVEIK	0.023	0.038
humFL-M54-12 (antibody, human IgG4, V domains shown) VH: QVQLVQSGAEVKKPGSSVKVSCKASGYTFTRFDISWVRQAPGQGLEWMGWIFPGDGSSQYNENFKGRATLTTDKSTSTAYMELSSLRSEDTAVYFCARSLISTAMFDHWGQGTLVTVSS VL: EIVMTQSPATLSVSPGERATLSCRASKSVSTSDFSYIHWYQQKPGQAPRLLIYLASHLESGIPARFSGSGSGTEFTLTISSLQSEDFAVYYCQHSRELPRTFGQGTKVEIK	0.032	0.015
humFL-M54-2 (antibody, human IgG4, V domains shown) VH: QVQLVQSGAEVKKPGSSVKVSCKASGYTFTRFDISWVRQAPGQGLEWMGWIFPGDGSSQYNENFKGRATLTTDKSTSTAYMELSSLRSEDTAVYFCARSLISTAMFDHWGQGTLVTVSS VL: EIVMTQSPATLSVSPGERATLSCRASKSVSTSDFSYIHWYQQKPGQPPRLLIFLASHLESGIPARFSGSGSGTEFTLTISSLQSEDFAVYYCQHSRELPRTFGQGTKVEIK	0.031	0.028
humFL-M54-15 (antibody, human IgG4, V domains shown) VH: QVQLVQSGAEVKKPGSSVKVSCKASGYTFTRFDISWVRQAPGQGLEWMGWIFPGDGSSQYNENFKGRVTITADKSTSTAYMELSSLRSEDTAVYFCARSLISTAMFDHWGQGTLVTVSS VL: EIVMTQSPATLSVSPGERATLSCRASKSVSTSDFSYIHWYQQKPGQAPRLLIYLASHLESGIPARFSGSGSGTEFTLTISSLQSEDFAVYYCQHSRELPRTFGQGTKVEIK	0.03	0.015

Molecular target: T1, hFc-hFasL (fusion protein of human Fc …)
Test: cell-based or functional assay
Remark: another data set of the same source

Binder	HepG2 IC50(nM), FasL antigen-induced cell apoptosis [nM]	Jurkat IC50(nM), FasL antigen-induced cell apoptosis [nM]
humFL-M88-4 (antibody, human IgG4, V domains shown, Humanized FL-M88) VH: QVQLVQSGAEVKKPGASVKVSCKGSGYTFTDYTIHWVRQAPGQGLEWMGVISTYQGDASYNQKFKGRVTMTVDKSTSTAYMELSSLRSEDTAVYYCARFPDWDYAMDYWGQGTLVTVSS VL: EIVMTQSPATLSVSPGERATLSCKASQSVDYDGDSYMNWYQQKPGQPPRLLIYAASNLESGIPARFSGSGSGTEFTLTISSLQSEDFAVYYCQHSRELPYTFGQGTKLEIK	0.0333	0.0294

The binders below were run against T1, hFc-hFasL (fusion protein of human Fc …) (assay: ELISA, hFc-hFasL coated, antibody titrated, anti-human kappa-HRP (protocol of Example 3.2)).

Binder	EC50 [pM]
humFL-M88-4 (antibody, human IgG4, V domains shown, Humanized FL-M88) VH: QVQLVQSGAEVKKPGASVKVSCKGSGYTFTDYTIHWVRQAPGQGLEWMGVISTYQGDASYNQKFKGRVTMTVDKSTSTAYMELSSLRSEDTAVYYCARFPDWDYAMDYWGQGTLVTVSS VL: EIVMTQSPATLSVSPGERATLSCKASQSVDYDGDSYMNWYQQKPGQPPRLLIYAASNLESGIPARFSGSGSGTEFTLTISSLQSEDFAVYYCQHSRELPYTFGQGTKLEIK	288
humFL-M88-17 (antibody, human IgG4, V domains shown, Humanized FL-M88) VH: QVQLVQSGAEVKKPGASVKVSCKGSGYTFTDYTIHWVRQAPGQGLEWMGVISTYQGDASYNQKFKGRVTMTVDKSTSTVYMELSSLRSEDTAVYYCARFPDWDYAMDYWGQGTLVTVSS VL: EIVMTQSPATLSVSPGERATLSCKASQSVDYDGDSYMNWYQQKPGQPPRLLIYAASNLESGIPARFSGSGSGTEFTLTISSLQSEDFAVYYCQQSRELPYTFGQGTKLEIK	329
humFL-M88-11 (antibody, human IgG4, V domains shown, Humanized FL-M88) VH: QVQLVQSGAEVKKPGASVKVSCKGSGYTFTDYTIHWVRQAPGQGLEWMGVISTYQGDASYNQKFKGRVTMTVDKSTSTVYMELSSLRSEDTAVYYCARFPDWDYAMDYWGQGTLVTVSS VL: EIVMTQSPATLSVSPGERATLSCKASQSVDYDGDSYMNWYQQKPGQAPRLLIYAASNLESGIPARFSGSGSGTEFTLTISSLQSEDFAVYYCQHSRELPYTFGQGTKLEIK	343
